# Assay results taken from patent US20240240189A1, “CANCER TREATMENT BY TARGETING PROTEINS OR INTERACTIONS OF EPHRINB-RGS3-KIF20A-SEPT7 AXIS” (CITY OF HOPE, priority 2021, published 2024).
# Entries after “also recorded” stand apart in the source; their conditions may differ.
# T1: SEPT7 (Mus musculus, UniProt O55131)
# T1 sequence (O55131 1-436): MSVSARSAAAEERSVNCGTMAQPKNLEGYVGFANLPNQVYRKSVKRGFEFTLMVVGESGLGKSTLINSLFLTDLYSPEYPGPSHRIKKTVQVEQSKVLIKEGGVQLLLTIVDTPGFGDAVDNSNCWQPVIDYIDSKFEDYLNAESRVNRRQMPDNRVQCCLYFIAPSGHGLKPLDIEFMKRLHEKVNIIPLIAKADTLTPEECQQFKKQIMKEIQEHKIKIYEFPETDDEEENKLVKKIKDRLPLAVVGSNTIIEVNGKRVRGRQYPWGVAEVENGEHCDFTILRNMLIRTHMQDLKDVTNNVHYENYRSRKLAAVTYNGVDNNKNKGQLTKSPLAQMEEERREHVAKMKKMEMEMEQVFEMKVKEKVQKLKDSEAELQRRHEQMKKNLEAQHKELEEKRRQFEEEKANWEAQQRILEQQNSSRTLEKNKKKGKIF
# B1: RBD: RGS-binding domain of KIF20A, amino acids 625-818 of mouse KIF20A sequence; competitive inhibitor for RGS3-KIF20A interaction (protein)
# chain: LKILKESLTTFYQEQIQERDEKIEELETLLQEAKQQPAAQQSGGLSLLRRSQRLAASASTQQFQEVKAELEQCKTELSSTTAELHKYQQVLKPPPPAKPFTIDVDKKLEEGQKNIRLLRTELQKLGQSLQSAERACCHSTGAGKLRQALTNCDDILIKQNQTLAELQNNMVLVKLDLQKKAACIAEQYHTVLKL
# modifications: left off: small tags and cut ends
# Key:
# human KIF20A transcript = experiment: shRNA screening by dual luciferase reporter assay; assay type: cell-based; settings: transfected HEK293 cells, shRNA in pNUT vector, cDNA target in psi-CHECK, 48 hours
# Procedure: FIGS. 10a-10c show generation of human KIF20A shRNAs and stable Daoy cell lines. […] Candidate shRNAs in pNUT vector were first screened with a cDNA target cloned in psi-CHECK vector in transfected HEK293 cells, using a dual luciferase reporter assay and their cDNA target in psi-CHECK Vector (Promega). Six candidate shKIF20As were tested with this assay. […] Data are mean±S.D. **P<0.01, ***P<0.001 (two-way ANOVA).
# DNA Constructs, Lentivirus Production: Lentiviral transfer plasmids used in this study include: Hiv7CMV-Cre-myc-2A-GFP (Addgene #117148), Hiv7CMV-GFP, Hiv7CMV-GFP-IRES-Luciferase, as well as Tet-on inducible shRNA plasmids Tet-pLKO-hushKIF20A726 or Tet-pLKO-hushKIF20A181-Puro (shRNA sequences were cloned into pLKO-Tet-On plasmid, Addgene #21915 at Agel/EcoRI sites). […]
# shRNA design and screening: Potential shRNA sequences were selected using web-based design tool (rnaidesigner.thermofisher.com/rnaiexpress/design.do). shRNAs were expressed under the control of a mouse U6 promoter in pNUTs vector which additionally contains a ubiquitin promoter-EGFP expression cassette. Candidate shRNAs in pNUTs and cDNA target in psi-CHECK were co-transfected into HEK293 cells in triplicates; 48 hours later, the firefly and Renilla Luciferase values were determined with Promega's Dual-Luciferase® Reporter Assay System (Promega, E1910). […]
# Daoy human MB cells = experiment: Growth assay of Daoy cells; assay type: cell-based; settings: parental Daoy cells with or without doxycycline
# Procedure: Generation of Daoy cell lines with stably integrated Tet-on inducible shRNA expression system: Daoy cells were infected with lentivirus of Tet-on inducible human KIF20A shRNA-726 and GFP-Luciferase prepared from Tet-pLKO-hushKIF20A726 plasmid and Hiv7CMVGFP-IRES-Luciferase plasmid, respectively. The transduced Daoy cells were selected for stable single clones with Puromycin (1 μg/ml, Sigma-Aldrich) and GFP fluorescence signal in DMEM (Invitrogen) with 10% fetal bovine serum. Single clones were picked up by glass cloning cylinders (Sigma-Aldrich) in 10 cm plate.
# Growth Assay of tumor cells: Mouse MB cell lines, or Daoy clones stably integrated with Tet-on inducible human KIF20A shRNA-726, or Wild Type Daoy cells, were seeded into multiple wells of 24 well plates (2×10^4 or 1×10^4 cells per well). Cells in quadruplicate were then dissociated and counted using a hemocytometer at consecutive days after initial plating.
# RGS3-KIF20A interaction = target: T2, RGS3-KIF20A interaction (Mus musculus, UniProt Q9DC04); experiment: GST-RGS pulldown experiment; assay type: binding; settings: expression of RBD, GST-RGS pull down
# T2 construct: mediated by the RGS domain of RGS3
# T2 sequence (Q9DC04 841-966 limits assumed): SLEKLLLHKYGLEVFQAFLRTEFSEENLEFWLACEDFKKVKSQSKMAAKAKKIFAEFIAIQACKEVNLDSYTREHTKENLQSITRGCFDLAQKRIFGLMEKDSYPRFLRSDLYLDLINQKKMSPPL
# SEPT7 = target: T1, SEPT7; settings: cited from earlier work
# [1] = tested on: neural progenitor cells (NPCs); experiment: In utero electroporation over-expression in the mouse cortex; assay type: in vivo; settings: expression plasmid delivered at E13.5 via IUE, brains collected at E15.5
# Description: Expression plasmid of GFP, RBD (RGS-binding domain of mouse KIF20A), or RGS was delivered into the cortices at E13.5 via in utero electroporation (IUE). Brains were collected at E15.5 for analyses. Distribution of transfected cells (GFP+) across the radial domains were scored. […] VZ, ventricular zone; IZ, intermediate zone; CP, cortical plate. Green and blue asterisks indicate P<0.01 (Student's t-test) for CP and SVZ/VZ distributions, respectively.
# RGS3-KIF20A interaction is mediated by the RGS domain of RGS3 and the RGS-binding domain (RBD) of KIF20A which is located to amino acids 625-818 of mouse KIF20A sequence (FIG. 13a)^9. […] In this experiment, expression plasmid of GFP, RBD (RGS-binding domain of KIF20A), or RGS was delivered into the cortices at E13.5 via IUE. Brains were collected at E15.5 for analyses. Distribution of transfected cells (GFP+) across the radial domains were scored.
# GISC017 cells = experiment: Cell cycle exit analysis (EdU/Ki67) in GISC017 cells; assay type: cell-based, human; settings: lentiviral expression of RBD
# Description: To further investigate the relevance of KIF20A in human brain tumors, inhibition of KIF20A in patient-derived GBM-initiating/stem cells (GISCs) was examined. As the ERKS axis functions in different types of brain tumor-initiating/stem cells, data obtained from study of GISCs would be applicable to other brain tumor cell types. Multiple lines of patient-derived GISCs were obtained from Dr. Christine Brown. These low passaged GISCs could be expanded in cultures and could engraft in NSG mice^43, 44. FIG. 11 summarizes the results of testing KIF20A in one GISC line (GISC017) by constitutive expression of a control scrambled shRNA or shKIF20A726 (shRNA targeting hKIF20A) in pNUT vector-based lentiviral expression system. […] In the above cell cycle exit analysis, co-staining of differentiation markers (e.g. βlll-tubulin, DCX, or NeuN) was performed, however, these markers were detected in EdU^+Ki67^− (cells having left the cell cycle) but also in some EdU^+Ki67^+ (cells staying in the cell cycle) cells, which might reflect a technical artefact observed with progenitor/stem cells in culture. […]
molecule,measurement,setting,value
"5′-AGTATGGAGAAGGTGAAAG-TTCAAGAGA-CTTTCACCTTCTCCATACT-3′ (AGTATGGAGAAGGTGAAAGTTCAAGAGACTTTCACCTTCTCCATACT; expressed or natural sequence) [shKIF20A181, shRNA targeting human KIF20A transcript]",inhibition of expression of the human KIF20A transcript (luciferase assay),human KIF20A transcript,significantly inhibit expression of the human KIF20A transcript
"C[C@H]1c2cccc(O)c2C(=O)C2=C(O)[C@]3(O)C(=O)C(C(N)=O)=C(O)[C@@H](N(C)C)[C@@H]3[C@@H](O)[C@@H]21 [doxycycline, reference compound]",growth of parental Daoy cells (cytotoxicity of doxycycline),Daoy human MB cells,not affected
B1,inhibition of binding of GST-RGS and KIF20A,RGS3-KIF20A interaction,inhibited binding between RGS3 and mouse KIF20A
same,inhibition of binding of GST-RGS and KIF20A,RGS3-KIF20A interaction; listed as Flag-RBD,inhibited binding of GST-RGS and KIF20A in a dose dependent manner
same,inhibition of binding of GST-RGS and KIF20A,RGS3-KIF20A interaction; listed as KIF20A625-818,block interaction between KIF20A and RGS3
same,interaction with SEPT7,SEPT7,interacts with SEPT7
same,neuronal differentiation of neural progenitor cells,[1],caused precocious neuronal differentiation of the affected NPCs; also recorded: caused neural progenitor cell differentiation and subsequent outward migration of newly born neurons into the IZ and CP regions
same,neuronal differentiation of neural progenitor cells,[1]; listed as KIF20A625-818,cause neuronal differentiation
same,cell cycle exit,GISC017 cells,induce cell cycle exit; also recorded: caused cell cycle exit
